# Experimental data as given in PMC5915679.
# Molecular target: human Argonaute-2 (human) (UniProt Q9UKV8)
# Test: ITC
Kd,fold lower affinity than without competitor (with 5 μM motif-2),fold lower affinity than without competitor (with 10 μM motif-2),Binder
234 nM,7 fold,15 fold,TVDNGTSAWGKPIDSGPSWGEP [hGW182 (TNRC6A) hook motif]
118 nM,–,–,VNRTDLDPRVLSNSGWGQTPIKQNTAWDTETSPRGE (domain or fragment) [hGW182 (TNRC6A) motif-1]
